Test results: patent US20030170653A1, “Biological method for the production of tuliposide A and its intermediates” (priority 2001, published 2003)

B1: Gad2/pNW2: glutamate decarboxylase homolog from Alstroemeria (SEQ ID NO: 2), expressed in E. coli from vector pNW2, crude protein (protein)
chain: MVLSSAVSDNTGPVHCTFASRYVRDAPARFRMPENSIPKDTAYQIVNDELMLDGNPRLNLASFVTTWMEPECDRLMIAAANKNYVDMDEYPVTTELQNRCVNIIAHLFNAPIGDEETAVGVGTVGSSEAIMLAGLAFKRKWQNKKKAEGKPYDKPNIVTGANVQVCWEKFARYFEVELKEVKLREGYYIMDPEKAVEMVDENTICVAAILGSTLTGEFEDVKLLNKLLEEKNKETGWDTPIHVDAASGGFIAPFLYPELEWDFRLPLVKSINVSGHKYGLVYAGVGWVVWRNKEDLPEELIFHINYLGADQPTFTLNFSKGSSQIIAQYYQFIRLGFQGYKNIMENCMENTRILREGLQETGRFEIVSKDIGVPLVAFALKDSSQYTVFEIADAMRRFGWIIPAYTMPKDAEHIAVLRVVIREDFSRSLAERLVNDMKKVLAELDVLPSRITTIAHVTAVENDNGEAVIKKSFLEIEKKVITHWKDVVMNGKKTNKVC
modifications: Alstroemeria
B2: gad3chim: chimeric glutamate decarboxylase homolog from Alstroemeria (SEQ ID NO: 6), N-terminal His-tag fusion from vector pNW9 (protein)
chain: MALSSVVSDSNNQVQCTYASRYVRDEAPGFRMPEKSIPKEAAFTMINDELMLDGNPRLNLASFVTTWMEPECDRLMMSTINKNYALMDDYPVTIDIQNRCVNMIANLFNAPIGEGETTVGCATVGSSEAMMLAGLAFKRNWQNKRKAEGKPYDKPNMVTGSNVQVCWVKFAKYFEVEMKKVNLREGYYVMDPEKAVEMVDENTICVAAILGSTLTGEFEDVKLLNDLLVEKNKKTGWDTPIHVDAAIGGFIAPFIYPELEWDFRLPLVKSINVSGHKYGLVYPGVGWVVWRNKNDLPEELIFHINYLGIDQPTFTLNFSKGSNQIIGQYYQLIRLGFEGYKNIMENCTENARILREHLEEMGVFEIISKDIGAPLVTIALKDSSKHSVFKIADTIRRFGWTIPAYTMPKDVEHIAVLRVVIREDFSRSLAERLANDMKKVLVELDIHPSRTTTIAHVKAVENGNGNYVIKKSIVENGNGEHVIKKSIGENGNGKHAIKNEHVIKKSIGENFNGKHAIKNCRDAVIANAA
modifications: N-terminal His-tag; Alstroemeria
B3: Gad3del/pNW12: glutamate decarboxylase homolog from Alstroemeria with in-frame deletion (SEQ ID NO: 4), N-terminal His-tag fusion from vector pNW12 (protein)
chain: MALSSVVSDSNNQVQCTYASRYVRDEAPGFRMPEKSIPKEAAFTMINDELMLDGNPRLNLASFVTTWMEPECDRLMMSTINKNYALMDDYPVTIDIQNRCVNMIANLFNAPIGEGETTVGCATVGSSEAMMLAGLAFKRNWQNKRKAEGKPYDKPNMVTGSNVQVCWVKFAKYFEVEMKKVNLREGYYVMDPEKAVEMVDENTICVAAILGSTLTGEFEDVKLLNDLLVEKNKKTGWDTPIHVDAAIGGFIAPFIYPELEWDFRLPLVKSINVSGHKYGLVYPGVGWVVWRNKNDLPEELIFHINYLGIDQPTFTLNFSKGSNQIIGQYYQLIRLGFEGYKNIMENCTENARILREHLEEMGVFEIISKDIGAPLVTIALKDSSKHSVFKIADTIRRFGWTIPAYTMPKDVEHIAVLRVVIREDFSRSLAERLANDMKKVLVELDIHPSRTTTIAHVKAVENGNGNYVIKKSIVENGNGEHVIKKSIGENGNGKHAIKNCRDAVIANAA
modifications: N-terminal His-tag; Alstroemeria

Legend:
[1] = Decarboxylase enzyme activity of E. coli extracts, substrate D,L-γ-methyleneglutamate (HPLC of FMOC derivatives); assay type: biochemical; conditions: for Rate for each substrate: γ-methyleneglutamate (2): crude protein, 20 mM D,L-γ-methyleneglutamate, pH 5.8, room temperature; for enzyme activity against D,L-γ-methyleneglutamate compared with L-glutamate: proteins from expressing cells
Procedure: (§1) Chemically competent BL21 (DE3) cells (Novagen) were transformed with pNW2, pNW12 and pNW9, as well as with plasmids pET28a and pET29a. An isolated colony of freshly transformed cells was inoculated into 2 mL of LB containing kanamycin (50 μg/mL) and the culture grown overnight at 37° C. Cultures were transferred to 250 mL of LB containing kanamycin (50 μg/mL) and grown at 22° C. to OD 0.6-1.0, at which point they were induced with IPTG (0.1 mM). Induced cells were grown for an additional 14 h and harvested by centrifugation at 10,000× g.
(§2) Cells were resuspended in 5 mL of extraction buffer (50 mM Tris-HCl, pH 7.5, 0.2 mM EDTA, 10% glycerol, 1 mM DTT and 1 mM fresh AEBSF) and disrupted by two passes through a French press cell (12,000 psi). Soluble protein extracts were obtained from the supernatant fraction after centrifugation at 10,000× g for 10 min. Protein concentrations were determined using a Bradford reagent (Bio-Rad) (Bradford, Anal. Biochem. 72:248-254 (1976)).
(§3) Enzyme activity was determined using a method similar to that of Snedden et al. (J. Biol. Chem. 271:4148-4153 (1996)) and Turano et al. (Plant Physiol. 117:1141-1421 (1998)). Assays were carried out in a volume of 200 μL with 200 mM pyridine-HCl, pH 5.8, 10 mM NaCl, 0.1 mM PLP, 20 mM L-glutamate or D,L-γ-methyleneglutamate, and 20 to 50 uL of enzyme extract. The reactions were incubated at room temperature and 50 μL aliquots were removed at various times. Ethanol (100 μL) was added to terminate the reaction and precipitate the proteins. Samples were centrifuged at 10,000× g for 10 min. The supernatants were transferred to a fresh tube and dried under vacuum after which they were dissolved in 500 μL of borate buffer (400 mM, pH 10). For HPLC analysis, 20 μL of the sample was derivatized by mixing with 20 μL of FMOC ((9-fluorenylmethoxycarbonyl)). FMOC-derivatized samples were separated on a Novapak C18 column (3.9×150 mm, Waters) using an Alliance 2690 HPLC with a 9600 PDA detector (Waters). Samples were injected (16 μL) and separated with a gradient of Buffer A (40 mM NaPO4, pH 7.8) to Buffer B (methanol:acetonitrile:water/45:45:10). Assay products were FMOC-derivatized and quantified by comparison with standards. In each experiment, enzyme activity determinations were performed in triplicate. Proteins from Escherichia coli expressing empty vectors pET28a and pET29a were used as controls.

[2] = Decarboxylase enzyme activity of E. coli extracts, substrate L-glutamate (HPLC of FMOC derivatives); assay type: biochemical; conditions: for Rate for each substrate: Glutamate (1): crude protein, 20 mM L-glutamate, pH 5.8, room temperature; for Ratio (½): rate with glutamate (1) over rate with γ-methyleneglutamate (2)
Procedure: as §1, §2, §3

Molecule	Rate for each substrate: γ-methyleneglutamate (2) [1] [μmol/min^−1/mg^−1]	Rate for each substrate: Glutamate (1) [2] [μmol/min^−1/mg^−1]	enzyme activity with L-glutamate compared with D,L-γ-methyleneglutamate as substrate ([2]; proteins from expressing cells)	Ratio (½) [2]	enzyme activity against D,L-γ-methyleneglutamate compared with L-glutamate [1]
B1	0.8	12.0	sixteen times higher	16	
B2					much higher
B3	12.4	7.0		0.56	much higher
